Measurements published in patent US6867179B1, “Methods of inducing hair growth and coloration” (Trustees of Boston University, priority 1994, dated 2005).

Experiments:
BCL-2 = BCL-2 antisense oligonucleotides in UV-irradiated MM4 cells with or without NGF; assay type: cell-based, human; details: UV 10 mJ/cm^2, NGF 50 ng/ml, 48 hours
Text: Purified phosphorothioate oligonucleotides were purchased from Quality Controlled Biochemicals, Inc. (Hopkinton, Mass.). 19 mer oligonucleotides were designed based on the published human BCL-2 sequence (Tsujimoto, Y. and Croce, C. M., Proc. Natl. Acad. Sci. USA, 83:5214-5218 (1986)). The sequence chosen was directed against the […] of the coding region starting 4 bases before the methionine initiation site. Nonsense oligonucleotides were used as control. Sequences used (all written 5′ to 3′): Antisense CCCAGCGTGCGCCATCCTT (SEQ ID NO: 7); Nonsense CTCCCACTCGTCATTCGAC (SEQ ID NO: 8).
MM4 cells were maintained in 60 mm diameter tissue culture dishes in 55.3% DME, 27.6% L15, 15% FBS, 1% nonessential amino acids (GIBCO BRL), 2 mM glutamine and 10 µg/ml insulin. Near confluent cells were UV irradiated with 10 mJ/cm^2. Immediately after irradiation cells were incubated with 10 uM antisense or nonsense BCL-2 oligonucleotides in suspension at […] for 30 minutes. Then cells were plated in tissue culture dishes in the presence or absence of NGF (50 ng/ml). Cells were supplemented with fresh oligonucleotides every 12 hours. Cell yield and BCL-2 level were determined 48 hours after irradiation. Cell yield was determined by counting cells in at least three representative field per each condition.

Bcl-2 protein = assay: Keratinocyte BCL-2 level after NGF deprivation (Western blot); assay type: cell-based, human; details: medium lacking BPE, 50 ng/ml NGF versus diluent, 24 and 48 hours
Description: To determine if NGF affects BCL-2 protein level in keratinocytes, cells were maintained in Keratinocyte basal medium until 60-80% confluent. Then cells were provided medium lacking BPE to eliminate exogenous NGF. Duplicate cultures were provided 50 ng/ml NGF or diluent alone.
Total keratinocyte proteins were extracted, and BCL-2 levels were determined by Western blot analysis as in Example 6.

melanocytes = assay: NGF protection of melanocytes from beta-amyloid-induced cell death; assay type: cell-based, human
Description: Melanocytes were maintained as above in hormone supplemented medium lacking hydrocortisone. Cells were supplemented with 25 microM of beta-amyloid 1-40 in the presence of 50 ng/ml NGS or diluent.
Photographs of representative fields were obtained and the percent of the live cells (spread) was determined 48 hours after addition of beta-amyloid and NFG or beta-amyloid and diluent. In the presence of beta-amyloid and diluent 77±8.5% appeared spread as compared to 96±1.4% in cultures supplemenbetated in beta-amyloid and NGF.

p75 = p75 signal transduction in melanocytes (JNK activation, intracellular ceramide); assay type: cell-based, human
Description: To investigate p75 signal transduction, it was first determined by RT-PCR that trkA and trkC are not expressed in MC maintained in choleragen/TPA-free medium. MC were incubated with 10 ng/ml nerve growth factor (NGF) or neurotrophin-3 (NT-3) for 30 minutes and c-Jun amino terminal kinase (JNK) activation was determined. […] Furthermore, within 3 hours p75 activation by NGF, but not by NT-3, lead to a 2-fold increase of intracellular ceramide. As before, ceramide increase was abrogated by pre-incubation with the cyclic peptide. Because in cell lines, UV irradiation directly activates cell surface receptors such as Fas and the TNFα receptor, sham- or UV-irradiated MC were used to determine p75 activation.

p75^NTR = target: T1, p75^NTR (Homo sapiens, UniProt P08138); assay: Competition for 125I beta-amyloid 1-40 binding to p75NTR-NIH 3T3 cells; set-up: expressed in transfected cells; host or cells: NIH 3T3 fibroblasts (p75^NTR NIH 3T3 cells, Dobrowsky et al. 1994)
T1 sequence (P08138 29-427): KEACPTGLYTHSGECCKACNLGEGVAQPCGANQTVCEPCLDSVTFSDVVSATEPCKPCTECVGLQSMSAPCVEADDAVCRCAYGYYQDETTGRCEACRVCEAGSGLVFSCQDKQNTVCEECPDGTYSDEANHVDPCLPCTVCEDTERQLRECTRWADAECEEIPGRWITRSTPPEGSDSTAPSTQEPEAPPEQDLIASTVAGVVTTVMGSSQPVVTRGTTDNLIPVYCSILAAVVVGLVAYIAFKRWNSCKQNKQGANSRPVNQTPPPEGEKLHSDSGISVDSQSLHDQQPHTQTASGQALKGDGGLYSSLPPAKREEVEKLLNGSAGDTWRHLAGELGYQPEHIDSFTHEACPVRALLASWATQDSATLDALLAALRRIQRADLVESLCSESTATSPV
Description: p75^NTR-NIH 3T3 cells were maintain in DMEM supplemented with 10% FBS in the presence of penicillin (45 ng/ml), streptomycin (68 ng/ml), and hygromycin B (17.5 ng/ml). […] After incubation, 1 mM of disuccinimidyl suberate was added for 30 minutes. Following centrifugation cells were lysed with RIPA buffer (50 mM Tris HCl, pH 8.0, […] NaCl 0.5% sodium deoxycholate 4, 5 mM MgCl2, 1% Triton x-100, 1 mM phenylmethylsulfonylfluoride [PMSF], and 1 microg/ml aprotinin), sonicated for 1-3 seconds and immunoprecipitated with anti p75^NTR antibodies (mouse monoclonal IgG1, Cedarlane Laboratories Ltd., Ontario, Canada) or mouse IgG as control for 16 hours at […] in the presence of 15 microl of protein G plus protein A agarose and 1M NaCl adjusted to pH 8.0. After several washes with 20 mM Tris HCl, pH 8.0, 1M NaCl, 5 mM MgCl2, 0.2% Triton X-100 and 1 mM PMSF, immunoprecipitates were separated over 8% PAGE and subjected to autoradiography. A band of 75-80 kD molecular weight was present only in lysates inmmunoprecipitated with anti p75^NTR antibodies and not lysates inmmunoprecipitated with irrelevant mouse IgG.
p75^NTR-NIH 3T3 cells were incubated for 2 hours at […] in binding medium (DMEM, 10 mM hepes, 0.1 mg/ml cytochrome C, 0.01% Tween 80, 1 mg/ml BSA) with ^125I beta-amyloid 1-40 and increasing concentrations of NGF (0-100 ng/ml). […]

[1] = NGF supplementation, preliminary data

Substance: NGF: nerve growth factor, neurotrophin ligand of p75 NGF-R and trk
- Cell yields, NGF plus nonsense oligonucleotides versus diluent plus nonsense (BCL-2): significantly higher
- BCL-2 level in keratinocytes (Bcl-2 protein): contributes, at least in part, to BCL-2 maintenance
- Percent of live cells (spread) (melanocytes; 25 microM beta-amyloid 1-40 and 50 ng/ml NGF, 48 hours): 96±1.4%
- Cell yields of beta-amyloid-supplemented melanocytes (melanocytes; NGF addition, within 3-5 days): enhanced cell yields
- Bcl-2 levels in beta-amyloid treated cells (melanocytes; [1]): increases Bcl-2 levels
- Beta-amyloid-induced Bax upregulation (melanocytes; [1]): decreases the beta-amyloid-induced Bax upregulation
- Appearance of beta-amyloid exposed melanocytes (melanocytes; in the presence of NGF): appear healthy and spread on the dish surface
- JNK activation (phosphorylation of GST-c-Jun(1-79)) (p75; 10 ng/ml, 30 minutes, MC without trkA and trkC): substantially induced phosphorylation of GST-c-Jun(1-79)
- Increase of intracellular ceramide (p75; within 3 hours): 2 fold
- Competition with beta-amyloid for p75NTR binding (p75^NTR): could be competed off by NGF
- Maximum inhibition of 125I beta-amyloid binding (p75^NTR; NGF 100 ng/ml, 2 hours): 38%
